The experiment deals with T1, amino-terminally FLAG-tagged human p75 (human, UniProt P08138 29-427).
T1 construct: also called FLAG-tagged p75; FLAG-p75; not shown: FLAG tag at the amino terminus
T1 sequence: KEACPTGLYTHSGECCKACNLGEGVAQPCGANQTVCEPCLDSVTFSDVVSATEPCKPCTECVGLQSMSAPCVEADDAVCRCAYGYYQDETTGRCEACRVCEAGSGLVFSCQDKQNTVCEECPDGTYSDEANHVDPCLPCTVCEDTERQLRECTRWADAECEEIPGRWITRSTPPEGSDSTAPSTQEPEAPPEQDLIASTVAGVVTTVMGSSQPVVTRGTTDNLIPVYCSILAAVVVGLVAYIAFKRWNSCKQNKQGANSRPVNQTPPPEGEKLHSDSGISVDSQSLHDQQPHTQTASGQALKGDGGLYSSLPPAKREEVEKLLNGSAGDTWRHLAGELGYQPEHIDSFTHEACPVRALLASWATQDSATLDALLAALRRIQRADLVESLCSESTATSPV
Briefly: competition: Pep5 at several concentrations against 1 uM GST-Rho GDI for immunoprecipitated p75.

B1: Pep5 (peptide)
peptide: CFFRGGFFNHNPRYC
notes: Chemically synthesized 15-residue peptide; also called peptide ligand to the p75 HD
Regarding B1, the binding result is on record as “binds”.

The values above are taken from US20040191240A1 (published 2004).
